Source: publication PMC5599985

Columns and labels:
[1] = biological target: biotinylated synthetic peptide containing the C-terminal 16 amino-acid residues of harmonin-a1 including the PBM; assay: SPR
[2] = biological target: NTD-PDZ1 supramodule of harmonin-a1; assay: NMR titration
[3] = biological target: PDZ2 domain of harmonin-a1 (amino acids 197-308); assay: NMR titration

| Kd [1] | Kd [2] | Kd [3] | Substance |
| --- | --- | --- | --- |
| 61 µM |  |  | NTD-PDZ1 supramodule of harmonin-a1 (domain or fragment) |
|  | 51 µM | 375 µM | synthetic peptide of the C-terminal 16 residues of harmonin-a1 (amino acids 533-548) including the PBM |
